Measurements as given in patent US20020049303A1.

Molecular target: recombinant memapsin 2 (M2pd), auto-activated from pro-M2pd at pH 4.0 (human) (UniProt P56817)
Experiment: cell-based or functional assay

Chain of recombinant memapsin 2 (M2pd), auto-activated from pro-M2pd at pH 4.0 (human) (P56817 25-419 limits assumed): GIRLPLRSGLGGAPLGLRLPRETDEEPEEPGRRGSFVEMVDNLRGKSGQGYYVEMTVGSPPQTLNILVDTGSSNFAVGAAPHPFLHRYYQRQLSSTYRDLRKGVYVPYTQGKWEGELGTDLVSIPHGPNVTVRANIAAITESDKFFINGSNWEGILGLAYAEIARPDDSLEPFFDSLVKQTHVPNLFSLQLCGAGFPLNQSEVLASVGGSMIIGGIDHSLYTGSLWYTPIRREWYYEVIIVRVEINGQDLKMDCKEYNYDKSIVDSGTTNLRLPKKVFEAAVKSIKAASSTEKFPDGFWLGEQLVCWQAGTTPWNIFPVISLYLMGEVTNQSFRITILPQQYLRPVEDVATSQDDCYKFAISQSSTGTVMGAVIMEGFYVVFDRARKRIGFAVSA

inhibition of M2pd activity (IC50): 300 µM
Substance: Pepstatin A (peptide)
